Data: patent US9925272B2, “Anti-theophylline antibodies and methods of use” (Hoffmann-La Roche Inc., priority 2012, dated 2018)
Where two headings read alike, the source gives them in different places.

B1: humanized antibody: humanized anti-theophylline antibody; VH SEQ ID NO: 12 (V71R), VL SEQ ID NO: 16 (R46L); human IgG1/kappa constant regions (antibody, V domains shown)
VH: QVQLQESGPGLVKPSQTLSLTCTVSGYSITSDYAWNWIRQHPGKGLEWIGYIRYSGHTGYNPSLKSRVTISRDTSKNQFSLKLSSVTAADTAVYYCARWVDYFDYWGQGTLVTVSS
VL: DVVMTQSPLSLPVTLGQPASISCRSSQSIVYNNRYTYLEWFQQRPGQSPRLLIYGVSNRFSGVPDRFSGSGSGTDFTLKISRVEAEDVGVYYCYQGTHAPYTFGQGTKLEIK
modifications: human IgG1/kappa constant regions; humanized VH; humanized VL
B2: murine antibody: murine anti-theophylline antibody, IgG1 kappa, from mouse hybridoma; VH SEQ ID NO: 04, VL SEQ ID NO: 08 (antibody, listed as Mus musculus, V domains shown)
VH: DVQLQESGPGLVKPSQSLSLTCAVTGYSITSDYAWNWIRQFPGNRLEWMGYIRYSGHTGYNPSLKSRISITRDTFKNQFFLQFNSVTTEDTATYYCARWVDYFDYWGQGTTLTVSS
VL: DVVMTQSPLSLPVSLGDQASISCRSSQSIVYNNRYTYLEWFVQKPGQSLKLLIYGVSNRFSGVPDRFSGSGSGTDFTLKISRVEAEDMGVYYCYQGTHAPYTFGGGTKLEIK

Tests used:
[1] = ELISA for specific binding of the antibody to immobilized biotinylated theophylline; settings: biotinylated theophylline 500 ng/mL on streptavidin plates; antibody 50-3000 ng/mL; anti-huFc Fab-HRP/ABTS, absorbance 405 nm
Protocol: To determine specific binding of the antibody by ELISA, Streptavidin coated ELISA plates were loaded with biotinylated theophylline (500 ng/mL in PBS) and incubated for 30 minutes at room temperature. After washing twice to remove unbound antigen, antibodies were added at concentrations between 50 and 3000 ng/mL (in PBS) and incubated for 30 minutes. After washing twice, bound antibody was detected with an anti-huFc Fab-HRP conjugate and ABTS substrate (with absorbance measurement at 405 nm).

[2] = Surface-plasmon-resonance (SPR) analysis of the affinity of antibody binding to theophylline
Text: FIG. 3 Binding profiles of the theophylline binding antibodies in SPR experiments.
To determine the affinity of specific binding of the antibody to theophylline, surface-plasmon-resonance (SPR) analyses were applied.

[3] = read-out: calculated affinities (KD)

Row | Molecule | binding to theophylline immobilized on the ELISA plate [1] | ka [2] | kd [2] | Kd ([2]; read-out: KD) [nM] | Kd [2, 3] [nM] | Kd ([2]; unit inferred, read-out: KD) [nM]
1 | B1 | binds specifically and dose dependent to theophylline | 1.31E+05 | 0.002214 | 17 | 17 | 17
2 | B2 | – | 1.12E+05 | 0.00228 | 20.3 | 20 | 20.3
